Source: patent US9102755B2, “Highly stabilized epidermal growth factor mutants” (PnP Biopharm Co., Ltd., priority 2013, dated 2015)

Legend:
Type in all cases: physicochemical
[1] = Structure and thermal stability (Tm) by circular dichroism; settings: 0.1 mg/ml; for Structure change: circular dichroism 190-250 nm, 20 mM sodium phosphate pH 5.5, 20° C., versus wild-type EGF; for Tm (melting temperature): circular dichroism, 20° C. to 95° C. at 1° C./min
Experimental: The structure and thermal stability of the purified EGF mutant were measured through a circular dichroism analysis using a J-810 spectrometer (JASCO). As the wild-type EGF, the purified EGF prepared in Example 2 was used. In order to analyze the structure, each EGF was dissolved in 20 mM sodium phosphate (pH 5.5) to be uniformly a final concentration of 0.1 mg/ml. And then, the dissolved EGF solution was added to 0.1 cm cell, and then its structure was analyzed under the conditions of, as 190 nm to 250 nm region, band width 1 nm, response 0.25 sec, data pitch 0.1 nm, scanning speed 20 nm/min, cell length 1 cm, accumulation 8 times, and a temperature of 20° C.
In order to analyze the thermal stability, a wavelength of 200 nm was determined through a comparison analysis of far-UV at the Tm (melting temperature) of 20° C. and 95° C., and progressed in a concentration of 0.1 mg/ml in 0.1 cm cell. As the conditions, it was measured at 20° C. to 95° C. under condition of 1° C./min.
The structure is changed at the band of about 195 nm when generating a folding-unfolding phenomenon. Using it, the melting temperature (Tm) was measured in the range of 20 to 95° C., and thus the accurate Tm value was analyzed. As a result, as for the structure change, most mutants had the similar structure as the wild-type EGF, and thus there were few changes. […] It can be confirmed that the thermal stabilities of M2 and M3 were improved by 87° C.

[2] = Circular dichroism after incubation at 60° C.; settings: 0.3 mg/ml, 20 mM sodium phosphate pH 5.5, 60° C., five days
Experimental: The stabilities of wild-type EGF and mutants should be confirmed through being stored at room temperature for a long period of time, but there is a disadvantage in that the time is too long. Therefore, the incubation test was performed at extreme environment for a short period of time. 0.3 mg/ml of each of the wild-type EGF and mutants was dissolved in 20 mM sodium phosphate (pH 5.5), and then subjected to the incubation in a water bath of 60° C. The sampling was performed per 24 hours unit, and then centrifuged at 13000 rpm and 4° C. for 15 minutes to collect the supernatant. The supernatant was diluted with 20 mM sodium phosphate (pH 5.5), and its structure was measured by using a circular dichroism. And then, the supernatant was added to 0.1 cm cell, and its structure was analyzed under the conditions of, in a region of 190 nm to 250 nm, band width 1 nm, response 0.25 sec, data pitch 0.1 nm, scanning speed 20 nm/min, cell length 1 cm, accumulation 8 times, a temperature of 20° C. […] In order to easily confirm such a result, the graph as illustrated in FIG. 3 is used using the ratio of the signal value at a first day to the signal value at 200 nm that has the biggest difference of signals. Table. […] From such a result, it can be confirmed that the EGF mutants prepared in the present invention have excellent thermal stability and solubility.

[3] = Solubility of wild-type and mutant EGFs in 20 mM sodium phosphate (pH 5.5)
Experimental: 1 mg of the respective wild-type and mutant EGFs prepared was dissolved in 1 ml of 20 mM sodium phosphate (pH 5.5 that is the similarly pH environment as cosmetics). In order to remove undissolved EGF, the mixture thus obtained was centrifuged and then supernatant was obtained. The concentration of the supernatant thus obtained was measured by using a Bradford method and UV method.

Substance	Structure change [1]	Tm (melting temperature) [1]	Percentage to wild-type EGF (CD signal value at 200 nm) [2]	Solubility ([3]; 1 mg in 1 ml 20 mM sodium phosphate pH 5.5, supernatant, Bradford and UV method)	Solubility (Comparison with wild-type %) ([3]; 20 mM sodium phosphate pH 5.5, relative to wild-type EGF)
D-34-3: EGF mutant, 34th valine substituted with aspartic acid (SEQ ID NO: 77) (NSDSECPLSHDGYCLHDGVCMYIEALDKYACNCDVGYIGERCQYRDLKWWELR; not fully specified; Epidermal growth factor; UniProt P01133 971-1023, looked up, variant V34D)	No change	(76° C.)			
B-19-4: EGF mutant, 19th valine substituted with aspartic acid (SEQ ID NO: 69) (NSDSECPLSHDGYCLHDGDCMYIEALDKYACNCVVGYIGERCQYRDLKWWELR; not fully specified; Epidermal growth factor; UniProt P01133 971-1023, looked up, variant V19D)	No change	(76° C.)			
D-34-2: EGF mutant, 34th valine substituted with glutamic acid (SEQ ID NO: 76) (NSDSECPLSHDGYCLHDGVCMYIEALDKYACNCEVGYIGERCQYRDLKWWELR; not fully specified; Epidermal growth factor; UniProt P01133 971-1023, looked up, variant V34E)	No change	(76° C.)	111.10%		
E-50-4: EGF mutant, 50th tryptophan substituted with serine (SEQ ID NO: 91) (RCQYRDLKWSELR)	No change	(76° C.)			
E-48-3: EGF mutant, 48th lysine substituted with arginine (SEQ ID NO: 90) (RCQYRDLRWWELR)	No change	(76° C.)			
A-4-1: EGF mutant, fourth serine substituted with glutamic acid (SEQ ID NO: 62) (NSDEECPLSHDGYCLHDGVCMYIEALDKYACNCVVGYIGERCQYRDLKWWELR; not fully specified; Epidermal growth factor; UniProt P01133 971-1023, looked up, variant S4E)	No change	(76° C.)			
A-8-2: EGF mutant, eighth leucine substituted with serine (SEQ ID NO: 63) (NSDSECPSSHDGYCLHDGVCMYIEALDKYACNCVVGYIGERCQYRDLKWWELR; not fully specified; Epidermal growth factor; UniProt P01133 971-1023, looked up, variant L8S)	No change	(76° C.)		699.1 µg/mL	137%
D-38-12: EGF mutant, 38th isoleucine substituted with aspartic acid (SEQ ID NO: 86) (CNCVVGYDGE)	No change	(76° C.)			
C-26-2: EGF mutant, 26th leucine substituted with serine (SEQ ID NO: 73) (NSDSECPLSHDGYCLHDGVCMYIEASDKYACNCVVGYIGERCQYRDLKWWELR; not fully specified; Epidermal growth factor; UniProt P01133 971-1023, looked up, variant L26S)	No change	(76° C.)			
D-38-9: EGF mutant, 38th isoleucine substituted with serine (SEQ ID NO: 83) (CNCVVGYSGE)	No change	(76° C.)			
D-35-8: EGF mutant, 35th valine substituted with lysine (SEQ ID NO: 82) (CNCVKGYIGE)	No change	(76° C.)			
B-19-2: EGF mutant, 19th valine substituted with serine (SEQ ID NO: 67) (NSDSECPLSHDGYCLHDGSCMYIEALDKYACNCVVGYIGERCQYRDLKWWELR; not fully specified; Epidermal growth factor; UniProt P01133 971-1023, looked up, variant V19S)	No change	(76° C.)			
D-35-7: EGF mutant, 35th valine substituted with aspartic acid (SEQ ID NO: 81) (CNCVDGYIGE)	No change	(76° C.)			
E-50-6: EGF mutant, 50th tryptophan substituted with glutamic acid (SEQ ID NO: 93) (RCQYRDLKWEELR)	No change	(76° C.)			
D-34-4: EGF mutant, 34th valine substituted with lysine (SEQ ID NO: 78) (CNCKVGYIGE)	No change	(76° C.)			
A-8-3: EGF mutant, eighth leucine substituted with proline (SEQ ID NO: 64) (NSDSECPPSHDGYCLHDGVCMYIEALDKYACNCVVGYIGERCQYRDLKWWELR; not fully specified; Epidermal growth factor; UniProt P01133 971-1023, looked up, variant L8P)	No change	(76° C.)			
D-38-11: EGF mutant, 38th isoleucine substituted with glutamic acid (SEQ ID NO: 85) (CNCVVGYEGE)	No change	(76° C.)			
D-35-6: EGF mutant, 35th valine substituted with glutamic acid (SEQ ID NO: 80) (CNCVEGYIGE)	No change	(76° C.)	100.14%		
D-34-1: EGF mutant, 34th valine substituted with serine (SEQ ID NO: 75) (NSDSECPLSHDGYCLHDGVCMYIEALDKYACNCSVGYIGERCQYRDLKWWELR; not fully specified; Epidermal growth factor; UniProt P01133 971-1023, looked up, variant V34S)	No change	(76° C.)			
B-19-5: EGF mutant, 19th valine substituted with lysine (SEQ ID NO: 70) (NSDSECPLSHDGYCLHDGKCMYIEALDKYACNCVVGYIGERCQYRDLKWWELR; not fully specified; Epidermal growth factor; UniProt P01133 971-1023, looked up, variant V19K)	No change	(76° C.)			
E-50-5: EGF mutant, 50th tryptophan substituted with histidine (SEQ ID NO: 92) (RCQYRDLKWHELR)	No change	(76° C.)			
D-35-5: EGF mutant, 35th valine substituted with serine (SEQ ID NO: 79) (CNCVSGYIGE)	No change	(76° C.)			
